Laboratory results taken from US20190153406A1 (PEKING UNIVERSITY, published 2019).

T1: rat insulin receptor substrate IRS1 (rat, UniProt P35570 1-1235, limits assumed)
T1 construct: The legend says Rat IRS1; also called Rat IRS1
T1 sequence (looked up): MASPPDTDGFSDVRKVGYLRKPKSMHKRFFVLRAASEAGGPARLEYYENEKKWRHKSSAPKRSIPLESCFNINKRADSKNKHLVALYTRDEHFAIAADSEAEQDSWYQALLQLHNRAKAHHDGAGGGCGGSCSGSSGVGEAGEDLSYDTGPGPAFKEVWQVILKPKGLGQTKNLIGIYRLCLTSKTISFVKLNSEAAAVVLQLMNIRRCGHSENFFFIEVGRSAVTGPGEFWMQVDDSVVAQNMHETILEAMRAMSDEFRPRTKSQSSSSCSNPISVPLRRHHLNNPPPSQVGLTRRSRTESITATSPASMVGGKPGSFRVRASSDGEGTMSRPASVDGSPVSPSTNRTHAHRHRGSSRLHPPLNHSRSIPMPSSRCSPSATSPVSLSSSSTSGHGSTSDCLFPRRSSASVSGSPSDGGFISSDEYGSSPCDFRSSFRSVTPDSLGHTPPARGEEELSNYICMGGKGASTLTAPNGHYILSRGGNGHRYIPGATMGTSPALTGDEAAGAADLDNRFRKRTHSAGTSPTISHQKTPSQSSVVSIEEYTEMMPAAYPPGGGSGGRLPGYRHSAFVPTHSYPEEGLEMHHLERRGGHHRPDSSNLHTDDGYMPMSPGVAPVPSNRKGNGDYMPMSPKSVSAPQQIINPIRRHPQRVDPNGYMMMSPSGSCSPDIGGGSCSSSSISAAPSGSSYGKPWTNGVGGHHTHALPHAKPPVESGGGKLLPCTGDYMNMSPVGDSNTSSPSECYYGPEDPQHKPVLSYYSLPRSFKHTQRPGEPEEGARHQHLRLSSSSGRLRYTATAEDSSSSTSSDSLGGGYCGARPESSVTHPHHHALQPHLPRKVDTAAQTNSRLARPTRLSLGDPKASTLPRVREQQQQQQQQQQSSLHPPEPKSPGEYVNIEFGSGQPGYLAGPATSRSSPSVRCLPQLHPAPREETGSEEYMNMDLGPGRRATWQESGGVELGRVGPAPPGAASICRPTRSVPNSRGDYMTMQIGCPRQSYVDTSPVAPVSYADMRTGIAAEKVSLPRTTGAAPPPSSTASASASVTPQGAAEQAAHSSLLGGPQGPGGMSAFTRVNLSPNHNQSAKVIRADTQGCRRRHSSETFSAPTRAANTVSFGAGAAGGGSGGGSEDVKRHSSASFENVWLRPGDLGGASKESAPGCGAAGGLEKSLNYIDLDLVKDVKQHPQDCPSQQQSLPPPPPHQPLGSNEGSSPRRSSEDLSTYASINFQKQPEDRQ


Legend:
[1] = target: T1, rat insulin receptor substrate IRS1; experiment: SPR, purified IRS1 immobilized, purified MG53 in mobile phase
[2] = target: T1, rat insulin receptor substrate IRS1; experiment: SPR, Rat IRS1 immobilized (500 RU), MG53-S255A in the mobile phase [lower panel]

| Kd [1] [nM] | binding result [2] | Binder |
| --- | --- | --- |
| 64.2 |  | mouse wild-type MG53 (enzyme, Expressed from a plasmid in HEK293T cells for co-IP and degradation assays; purified protein in the mobile phase for SPR; also called TRIM72; Mitsugumin 53) MSAAPGLLRQELSCPLCLQLFDAPVTAECGHSFCRACLIRVAGEPAADGTVACPCCQAPTRPQALSTNLQLSRLVEGLAQVPQGHCEEHLDPLSIYCEQDRTLVCGVCASLGSHRGHRLLPAAEAQARLKTQLPQQKMQLQEACMRKEKTVAVLEHQLVEVEETVRQFRGAVGEQLGKMRMFLAALESSLDREAERVRGDAGVALRRELSSLNSYLEQLRQMEKVLEEVADKPQTEFLMKFCLVTSRLQKILSESPPPARLDIQLPVISDDFKFQVWKKMFRALMPALEELTFDPSSAHPSLVVSSSGRRVECSDQKAPPAGEDTRQFDKAVAVVAQQLLSQGEHYWEVEVGDKPRWALGVMAADASRRGRLHAVPSQGLWLLGLRDGKILEAHVEAKEPRALRTPERPPARIGLYLSFADGVLAFYDASNPDVLTPIFSFHERLPGPVYPIFDVCWHDKGKNAQPLLLVGPEQEQA |
|  | no binding (tested: 1000 nM) | mouse MG53 S255A mutant (enzyme) MSAAPGLLRQELSCPLCLQLFDAPVTAECGHSFCRACLIRVAGEPAADGTVACPCCQAPTRPQALSTNLQLSRLVEGLAQVPQGHCEEHLDPLSIYCEQDRTLVCGVCASLGSHRGHRLLPAAEAQARLKTQLPQQKMQLQEACMRKEKTVAVLEHQLVEVEETVRQFRGAVGEQLGKMRMFLAALESSLDREAERVRGDAGVALRRELSSLNSYLEQLRQMEKVLEEVADKPQTEFLMKFCLVTSRLQKILSEAPPPARLDIQLPVISDDFKFQVWKKMFRALMPALEELTFDPSSAHPSLVVSSSGRRVECSDQKAPPAGEDTRQFDKAVAVVAQQLLSQGEHYWEVEVGDKPRWALGVMAADASRRGRLHAVPSQGLWLLGLRDGKILEAHVEAKEPRALRTPERPPARIGLYLSFADGVLAFYDASNPDVLTPIFSFHERLPGPVYPIFDVCWHDKGKNAQPLLLVGPEQEQA |
